# Assay results reported in patent publication US12227551B2, “Membrane bound IL12 compositions and methods for tunable regulation” (Obsidian Therapeutics, Inc., priority 2018, dated 2025).
# B1: OT-001356: CD19 CAR; stop; IRES; secreted IL12 (p40 23-328; (G4S)3; p35 57-253); nucleic acid SEQ ID NO: 482 (protein)
# chain: IWELKKDVYVVELDWYPDAPGEMVVLTCDTPEEDGITWTLDQSSEVLGSGKTLTIQVKEFGDAGQYTCHKGGEVLSHSLLLLHKKEDGIWSTDILKDQKEPKNKTFLRCEAKNYSGRFTCWWLTTISTDLTFSVKSSRGSSDPQGVTCGAATLSAERVRGDNKEYEYSVECQEDSACPAAEESLPIEVMVDAVHKLKYENYTSSFFIRDIIKPDPPKNLQLKPLKNSRQVEVSWEYPDTWSTPHSYFSLTFCVQVQGKSKREKKDRVFTDKTSATVICRKNASISVRAQDRYYSSSWSEWASVPCSGGGGSGGGGSGGGGSRNLPVATPDPGMFPCLHHSQNLLRAVSNMLQKARQTLEFYPCTSEEIDHEDITKDKTSTVEACLPLELTKNESCLNSRETSFITNGSCLASRKTSFMMALCLSSIYEDLKMYQVEFKTMNAKLLMDPKRQIFLDQNMLAVIDELMQALNFNSETVPQKSSLEEPDFYKTKIKLCILLHAFRIRAVTIDRVMSYLNASGS
# What was measured:
# CD19+ Nalm6 tumors [1] = assay: Nalm6-Luc tumor burden by BLI, mean total flux, NSG mice given CAR-T cells (Example 9; Table 28); assay type: in vivo
# Method: (§1) The study was designed to determine if membrane bound IL12 (mbIL12) expressed on CAR-T cells via a CD8 TM domain and CD8 Hinge Region promotes CAR T cell expansion in cis, promotes non-CAR-T cell expansion in trans, and/or increases in vivo CAR T cell efficacy against CD19+ Nalm6 tumors. To test in vivo anti-tumor activity, experiments were performed in NSG mice. Nalm6 cells were transfected with Redifect Red-Fluc (Perkin Elmer) under selection using Puromycin for ˜2 months to generate a line that stably expresses the luciferase reporter; thereafter named Nalm6-Luc. Ten days before tumor implantation, Nalm6-Luc cells were thawed and cultured in puromycin-containing media. On day 0, cells were counted, resuspended in PBS and injected into NSG mice via tail vein. On day 6, mice were imaged for bioluminescent intensity (BLI) and sorted into groups based on their tumor size ensuring that all groups had the same sized tumors. Human T cells were transduced with one of the following constructs as shown in the study design in Table 27:
# (§2) Next, holding total CAR+ T cell dose constant at either 300,000 or 1 million cells per animal, transduced T cells were intravenously infused into mice on day 7. Tumors were monitored in mice using BLI and the mean of the Total Flux (photons/second) was calculated for each group as an indicator of tumor burden (Table 28). In order to track the trans effect of IL12 expressing CART cells on T cells that lack expression of IL12, 5 million GFP+ T cells (negative for IL12) were co-infused with the IL12-expressing CAR+ T cells, and peripheral blood draws taken over time to evaluate the effect of IL12 on phenotypic changes in GFP+ T cells by flow cytometry analysis.
# [2] = Plasma IL12 and IFNgamma cytokine levels, Nalm6-Luc NSG model (Example 9; Table 31); assay type: in vivo, NSG mice; details: day 14 post T cell transfer
# Method: as §1
# Thus, anti-tumor efficacy (Table 28) appears to correlate with plasma cytokine levels.
# [3] = system: CAR+ T cells and GFP+ T cells; assay: CAR-T and GFP+ T cell expansion in peripheral blood by flow cytometry (Example 9; Table 32); assay type: in vivo, NSG mice; details: cell numbers in 50 uL blood
# Method: as §2
# Thus, anti-tumor efficacy (Table 28) appears to correlate with CAR-T cell expansion.
# CD19+ Nalm6 tumors [4] = assay: Nalm6-Luc tumor burden by BLI, mean total flux, NSG mice, B7.1 TM mbIL12 constructs (Example 10; Table 34); assay type: in vivo
# Method: as §1, with “To” for “The study was designed to determine if membrane bound IL12 (mbIL12) expressed on CAR-T cells via a CD8 TM domain and CD8 Hinge Region promotes CAR T cell expansion in cis, promotes non-CAR-T cell expansion in trans, and/or increases in vivo CAR T cell efficacy against CD19+ Nalm6 tumors. To”, “ensure” for “ensuring”, “33:” for “27:”
# as §2, with “at” for “at either 300,000 or”, “34).” for “28).”, “on” for “on T cells”, “10” for “5”
# CD19+ Nalm6 tumors [5] = assay: Kaplan-Meier animal survival (Example 10; Table 35); assay type: in vivo, NSG mice
# Method: as §1, with “To” for “The study was designed to determine if membrane bound IL12 (mbIL12) expressed on CAR-T cells via a CD8 TM domain and CD8 Hinge Region promotes CAR T cell expansion in cis, promotes non-CAR-T cell expansion in trans, and/or increases in vivo CAR T cell efficacy against CD19+ Nalm6 tumors. To”, “ensure” for “ensuring”, “33:” for “27:”
# Percent survival was also measured for each group during the course of the experiment and the following numbers were obtained as shown in Table 35: […]
# [6] = system: CAR+ T cells and GFP+ T cells; assay: CAR-T and GFP+ T cell expansion in peripheral blood by flow cytometry (Example 10; Table 37); assay type: in vivo, NSG mice; parameters: unit not given here; details: day 14 post T cell transfer, 1 million CAR+ T cells
# Method: as §2, with “at” for “at either 300,000 or”, “34).” for “28).”, “on” for “on T cells”, “10” for “5”
# Thus, anti-tumor efficacy (Table 34) appears to correlate with CAR-T cell expansion.
# [7] = day 27 post tumor implant, day 20 post T cell transfer
# [8] = day 41 post tumor implant, day 34 post T cell transfer
molecule,measurement,setting,value
B1,Mean Total Flux (Nalm-6 Tumor Burdon),"CD19+ Nalm6 tumors [1]; day 6 post tumor implant, day −1 post T cell transfer (before infusion), cell dose not given",1069500 photons/second
same,Mean Total Flux (Nalm-6 Tumor Burdon),"CD19+ Nalm6 tumors [1]; day 13 post tumor implant, day 6 post T cell transfer",17363750 photons/second
same,Mean Total Flux (Nalm-6 Tumor Burdon),"CD19+ Nalm6 tumors [1]; day 20 post tumor implant, day 13 post T cell transfer",555500 photons/second
same,Mean Total Flux (Nalm-6 Tumor Burdon),CD19+ Nalm6 tumors [1]; [7],769125 photons/second
same,Mean Total Flux (Nalm-6 Tumor Burdon),"CD19+ Nalm6 tumors [1]; day 34 post tumor implant, day 27 post T cell transfer",743125 photons/second
same,Mean Total Flux (Nalm-6 Tumor Burdon),CD19+ Nalm6 tumors [1]; [8],716750 photons/second
same,Day 14 Plasma IFNgamma Levels,[2]; cell dose 0.3 ×10e6,"17,565 pg/mL"
same,Day 14 Plasma IL 12 Levels,[2]; cell dose 0.3 ×10e6,"1,455 pg/mL"
same,Day 14 Plasma IFNgamma Levels,[2]; cell dose 1 ×10e6,"22,154 pg/mL"
same,Day 14 Plasma IL 12 Levels,[2]; cell dose 1 ×10e6,"3,853 pg/mL"
same,Cis Effect: Numbers of CAR+ Cells on Day 14,[3]; cell dose 0.3 ×10e6,1402.64
same,Trans Effect: Numbers of GFP+ Cells on Day 14,[3]; cell dose 0.3 ×10e6,400.00
same,Cis Effect: Numbers of CAR+ Cells on Day 14,[3]; cell dose 1 ×10e6,3789.89
same,Trans Effect: Numbers of GFP+ Cells on Day 14,[3]; cell dose 1 ×10e6,332.75
same,Mean Total Flux (Nalm-6 Tumor Burdon),"CD19+ Nalm6 tumors [4]; day 6 post tumor implant, day −1 post T cell transfer (before infusion), 1 million CAR+ T cells",2667500 photons/second
same,Mean Total Flux (Nalm-6 Tumor Burdon),"CD19+ Nalm6 tumors [4]; day 15 post tumor implant, day 8 post T cell transfer",72220000 photons/second
same,Mean Total Flux (Nalm-6 Tumor Burdon),"CD19+ Nalm6 tumors [4]; day 19 post tumor implant, day 12 post T cell transfer",3141750 photons/second
same,Mean Total Flux (Nalm-6 Tumor Burdon),"CD19+ Nalm6 tumors [4]; day 22 post tumor implant, day 15 post T cell transfer",1001125 photons/second
same,Mean Total Flux (Nalm-6 Tumor Burdon),CD19+ Nalm6 tumors [4]; [7],991750 photons/second
same,Mean Total Flux (Nalm-6 Tumor Burdon),"CD19+ Nalm6 tumors [4]; day 30 post tumor implant, day 23 post T cell transfer",797000 photons/second
same,Mean Total Flux (Nalm-6 Tumor Burdon),"CD19+ Nalm6 tumors [4]; day 33 post tumor implant, day 26 post T cell transfer",887000 photons/second
same,Mean Total Flux (Nalm-6 Tumor Burdon),"CD19+ Nalm6 tumors [4]; day 36 post tumor implant, day 29 post T cell transfer",627875 photons/second
same,Mean Total Flux (Nalm-6 Tumor Burdon),CD19+ Nalm6 tumors [4]; [8],697500 photons/second
same,Kaplan-Meier Analysis of Animal Survival (percent survival),CD19+ Nalm6 tumors [5]; day 0 post tumor implant,100%
same,Kaplan-Meier Analysis of Animal Survival (percent survival),CD19+ Nalm6 tumors [5]; day 41 post tumor implant,100%
same,Cis Effect: Numbers of CAR+ Cells on Day 14,[6],1777
same,Trans Effect: Numbers of GFP+ Cells on Day 14,[6],99
